# B1: ADD1 (parent)
# chain: GEGTGSPPKWQIGEQEFEALMRML
# B2: TMEM175 (parent)
# chain: SCTIIFLASIFQLAMWTTALLHQA
# Variants of: B1
# Test: protein stability index of a GFP-peptide fusion (GPS, HEK-293T) (PSI 1-6); higher = more stable
# Details: c terminus: a fixed tail appended
# 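Further: lentivirally expressed fusions sorted by FACS into six bins by GFP to DsRed ratio, PSI derived from sequencing read proportions per bin multiplied by bin number.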
row,Variant,protein stability index
1,E14D,3.17
2,E14F,2.1
3,E14G,2.92
4,E14H,3.09
5,E14I,3.39
6,E14K,3.61
7,E14L,2.3
8,E14M,2.72
9,E14N,2.96
10,E14P,2.93
11,E14Q,3.19
12,E14R,2.6
13,E14S,2.94
14,E14T,2.79
15,E14V,2.29
16,E14W,1.97
17,E14Y,1.8
18,Q15A,2.75
19,Q15C,2.9
20,Q15D,3.48
21,Q15E,3.33
22,Q15F,2.33
23,Q15G,2.99
24,Q15H,2.83
25,Q15I,2.49
26,Q15K,2.47

row,Variant,protein stability index
1,Q15L,2.22
2,Q15M,2.6
3,Q15N,3.03
4,Q15P,3.51
5,Q15R,2.59
6,Q15S,3.13
7,Q15T,3.09
8,Q15V,2.39
9,Q15W,1.86
10,Q15Y,2.25
11,E16A,2.33
12,E16C,2.75
13,E16D,3.52
14,E16F,1.59
15,E16G,2.5
16,E16H,2.8
17,E16I,1.31
18,E16K,2.53
19,E16L,1.4
20,E16M,1.74
21,E16N,3.1
22,E16P,2.61
23,E16Q,2.37
24,E16R,2.51
25,E16S,3.06
26,E16T,2.4

row,Variant,protein stability index
1,E16V,1.6
2,E16W,2.54
3,E16Y,1.71
4,F17A,3.92
5,F17C,3.33
6,F17D,4.82
7,F17E,4.52
8,F17G,4.19
9,F17H,4.32
10,F17I,3.15
11,F17K,3.88
12,F17L,3.37
13,F17M,3.52
14,F17N,3.55
15,F17P,4.79
16,F17Q,4.76
17,F17R,3.83
18,F17S,4.28
19,F17T,3.75
20,F17V,3.84
21,F17W,3.6
22,F17Y,3.94
23,E18A,2.76
24,E18C,2.82
25,E18D,3.69
26,E18F,1.93

row,Variant,protein stability index
1,E18G,2.69
2,E18H,2.1
3,E18I,2.37
4,E18K,2.9
5,E18L,2.41
6,E18M,2.95
7,E18N,2.47
8,E18P,3.39
9,E18Q,3.22
10,E18R,2.07
11,E18S,3.17
12,E18T,3
13,E18V,2.3
14,E18W,1.85
15,E18Y,2.08
16,A19C,3.43
17,A19D,4.11
18,A19E,4.04
19,A19F,2.67
20,A19G,3.22
21,A19H,3.65
22,A19I,2.39
23,A19K,2.69
24,A19L,2.85
25,A19M,2.7
26,A19N,4.03

row,Variant,protein stability index
1,A19P,3.25
2,A19Q,3.65
3,A19R,3.59
4,A19S,2.94
5,A19T,3.25
6,A19V,2.97
7,A19W,2.31
8,A19Y,3.09
9,L20A,4.61
10,L20C,4.05
11,L20D,4.8
12,L20E,4.77
13,L20F,3.07
14,L20G,4.67
15,L20H,4.97
16,L20I,2.46
17,L20K,4.4
18,L20M,3.64
19,L20N,4.89
20,L20P,4.45
21,L20Q,5.25
22,L20R,4.19
23,L20S,5.12
24,L20T,3.63
25,L20V,3.48
26,L20W,3.61

row,Variant,protein stability index
1,L20Y,3.97
2,M21A,3.35
3,M21C,3.18
4,M21D,4.41
5,M21E,4.16
6,M21F,3.47
7,M21G,3.87
8,M21H,4.16
9,M21I,2.99
10,M21K,3.49
11,M21L,2.82
12,M21N,3.71
13,M21P,4.2
14,M21Q,3.83
15,M21R,3.18
16,M21S,3.66
17,M21T,3.13
18,M21V,3.11
19,M21W,2.83
20,M21Y,3.09
21,R22A,3.18
22,R22C,2.21
23,R22D,3.61
24,R22E,3.39
25,R22F,2.79
26,R22G,3.09

row,Variant,protein stability index
1,R22H,2.92
2,R22I,2.49
3,R22L,2.09
4,R22M,2.55
5,R22N,3.62
6,R22P,3.75
7,R22Q,3.3
8,R22S,3.44
9,R22T,3
10,R22V,2.14
11,R22W,2.2
12,R22Y,2.37
13,M23A,3.58
14,M23C,3.74
15,M23D,5.08
16,M23E,5.04
17,M23F,2.52
18,M23G,4.56
19,M23H,3.1
20,M23I,2.16
21,M23K,4.49
22,M23L,2.74
23,M23N,4.8
24,M23P,4.76
25,M23Q,4.44
26,M23R,4.26

row,Variant,protein stability index
1,M23S,4.68
2,M23T,3.38
3,M23V,3.43
4,M23Y,2.96
5,L24A,3.83
6,L24C,3.52
7,L24D,4.89
8,L24E,4.98
9,L24F,3.42
10,L24G,4.1
11,L24H,4.32
12,L24I,3.52
13,L24K,4.67
14,L24M,3.89
15,L24N,4.13
16,L24P,4.38
17,L24Q,4.74
18,L24R,4.34
19,L24S,3.92
20,L24T,3.8
21,L24V,3.06
22,L24W,3.57
23,L24Y,2.68

# Variants of: B2
# Test: as above
# Details: c terminus: a fixed tail appended
row,Variant,protein stability index
1,S1A,2.72
2,S1C,3.31
3,S1D,2.62
4,S1E,1.31
5,S1G,2.3
6,S1H,2.8
7,S1I,3.24
8,S1K,2.29
9,S1L,2.96
10,S1M,2.14
11,S1N,2.02
12,S1Q,1.64
13,S1R,4.91
14,S1T,2.86
15,S1W,2.14
16,S1Y,1.75
17,C2A,3.34
18,C2D,3.24
19,C2E,2.64
20,C2F,2.66
21,C2G,3.98
22,C2H,3.33
23,C2I,1.73
24,C2K,3.34
25,C2L,2.87
26,C2M,2.59

row,Variant,protein stability index
1,C2N,4.36
2,C2P,1.95
3,C2Q,2.54
4,C2R,2.3
5,C2V,3.64
6,C2W,2.26
7,C2Y,2.89
8,T3A,3.36
9,T3D,2.86
10,T3E,1.72
11,T3F,2.75
12,T3H,2.04
13,T3I,3.33
14,T3K,2.84
15,T3L,2.92
16,T3M,2.56
17,T3Q,3
18,T3S,2.57
19,T3V,2.11
20,T3W,3.07
21,T3Y,4.1
22,I4A,3.22
23,I4D,3.54
24,I4F,2.9
25,I4G,2.7
26,I4H,3.04

row,Variant,protein stability index
1,I4K,3.01
2,I4N,3
3,I4P,4.19
4,I4T,2.72
5,I4V,2.35
6,I4W,2.14
7,I4Y,2.23
8,I5A,2.65
9,I5F,2.81
10,I5G,2.33
11,I5H,3.05
12,I5K,2.92
13,I5L,1.46
14,I5M,3.44
15,I5N,2.28
16,I5P,2.58
17,I5R,1.6
18,I5T,2.35
19,I5V,1.82
20,F6A,4.41
21,F6C,3.39
22,F6D,3.81
23,F6E,2.76
24,F6K,2.52
25,F6N,2.86
26,F6P,2.59

row,Variant,protein stability index
1,F6Q,2.14
2,F6R,2.56
3,F6S,1.02
4,F6T,4.09
5,F6V,2.74
6,L7A,4.52
7,L7C,3.2
8,L7D,4.13
9,L7E,2.34
10,L7F,1.87
11,L7G,4.01
12,L7H,3.64
13,L7I,3.83
14,L7K,2.48
15,L7M,2.79
16,L7N,3.78
17,L7P,2.79
18,L7Q,3.37
19,L7R,3.25
20,L7S,2.77
21,L7T,3.83
22,L7V,3.55
23,L7W,3.1
24,A8C,2.98
25,A8D,3.72
26,A8E,2.8

row,Variant,protein stability index
1,A8F,3.99
2,A8G,3.09
3,A8H,3.28
4,A8I,4.22
5,A8K,3.08
6,A8L,3.28
7,A8N,4.58
8,A8P,2.84
9,A8Q,3.65
10,A8S,3
11,A8T,4.12
12,A8V,2.62
13,A8Y,3.74
14,S9A,3.6
15,S9E,4.07
16,S9G,2.5
17,S9K,3.56
18,S9L,3.52
19,S9M,2.49
20,S9N,3.06
21,S9P,2.31
22,S9Q,4.14
23,S9R,2.78
24,S9T,2.5
25,S9W,4.47

# Source: the supplement of paper PMC10567573
